Bridges are numbered along the chain shown (N, C = ends). [ ]: non-standard residue; d: D form. dPhe(4-CF3) = N[C@H](Cc1ccc(C(F)(F)F)cc1)C(=O)O; dTrp(6-F) = N[C@H](Cc1c[nH]c2cc(F)ccc12)C(=O)O; R5 = C=CCCC[C@@](C)(N)C(=O)O; FAM = carboxyfluorescein
T1: MDM4 protein (human), O15151
T1 chain: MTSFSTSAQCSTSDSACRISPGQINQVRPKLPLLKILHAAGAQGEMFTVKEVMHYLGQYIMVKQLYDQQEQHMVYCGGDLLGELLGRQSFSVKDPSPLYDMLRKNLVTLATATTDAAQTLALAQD

B1: Acetyl-^DPMI-δ-(6-10 olefin staple) (D-K9D-Q, D-R12D-S, 6x(D-A) polypeptide tail)-NH2 (peptide)
peptide: Ac-[dT][dA][dTrp(6-F)][dY][dA][R5][dPhe(4-CF3)][dE][dQ][R5][dL][dS][dA][dA][dA][dA][dA][dA]-NH2
modifications: staple 6-10; also: mixture of cis-trans isomers
B2: Acetyl-^DPMI-δ-(6-10 olefin staple) (D-K9D-Q, D-R12D-S, 9x(D-A) polypeptide tail)-NH2 (peptide)
peptide: Ac-[dT][dA][dTrp(6-F)][dY][dA][R5][dPhe(4-CF3)][dE][dQ][R5][dL][dS][dA][dA][dA][dA][dA][dA][dA][dA][dA]-NH2
modifications: staple 6-10; also: mixture of cis-trans isomers
B3: carboxyfluorescein (FAM)-labeled 12/1 peptide 13 (FAM-…-NH2) (peptide)
peptide: {FAM}-RFMDYWEGL-NH2
modifications: also: places C-terminal amide at E7

Tests used:
[1] = biological target: MDM2 (in HCT116 cells) (human), Q00987; experiment: cell-based or functional assay
[2] = biological target: Purified MDM2 (1-125) protein (human MDM2 1-125 sequence comprising a modified TEV cleavage site, pNIC-GST fusion) (human), Q00987; experiment: competitive fluorescence anisotropy (FP) against FAM-labeled 12/1 peptide on MDM2 (1-125); apparent Kd
Purified MDM2 (1-125) protein (human MDM2 1-125 sequence comprising a modified TEV cleavage site, pNIC-GST fusion) (human), Q00987, sequence (Q00987 1-125 limits assumed): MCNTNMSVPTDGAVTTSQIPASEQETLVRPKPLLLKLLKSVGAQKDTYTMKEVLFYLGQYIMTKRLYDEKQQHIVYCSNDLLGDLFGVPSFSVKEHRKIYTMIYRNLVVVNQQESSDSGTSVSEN

[3] = biological target: T1, MDM4 protein (human), O15151; experiment: direct fluorescence anisotropy titration of MDM4 against 50 nM FAM-labeled peptide; apparent Kd, 1:1 model

Binder	p53 activity EC50 (µM) (0% FBS, 4 h) [1]	p53 activity EC50 (µM) (10% FBS, 16 h) [1]	Kd [2]	Kd [3]
B1	0.61 µM	0.28 µM	3.2 nM	–
B2	50 µM	> 50 µM	21.7 nM	–
B3	–	–	–	4 nM

Source: patent US20250042961A1, “P53 PEPTIDOMIMETIC MACROCYCLES” (MERCK SHARP & DOHME LLC, priority 2021, published 2025)
